Source: the supplement of paper PMC10899765

Assays:
Conditions in all cases: 20 nM; 72 h
MCF10A [1] = test: 5+ nucleoli phenotype percent effect (relative to siNT 0% and siKIF11 100%); higher = more cells with five or more nucleoli
Protocol: (§1)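 After 72 h, cells were fixed and stained with Hoechst and anti-fibrillarin, and nucleoli per nucleus were counted with CellProfiler. Values are plate-adjusted percent effect for the one-nucleolus and 5+ nucleoli phenotypes, normalised to siNT (0%) and to the positive controls siNOL11 or siKIF11 (100%), as the mean of biological triplicates. Percent viability is the nuclei count relative to siNT.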

MCF10A [2] = test: percent viability (nuclei count relative to siNT); higher = more viable cells
Protocol: as §1

MCF10A [3] = test: one-nucleolus phenotype percent effect (relative to siNT 0% and siNOL11 100%); higher = more cells with one nucleolus (ribosome biogenesis inhibition)
Protocol: as §1

Sequence | 5+ nucleoli phenotype percent effect (MCF10A [1]) [%] | percent viability (MCF10A [2]) [%] | one-nucleolus phenotype percent effect (MCF10A [3]) [%]
ACGGAUGUUUGAGCAUGUGCUA [hsa-miR-105-3p] | 12.2 | 117 | -17
AACAUCACUGCAAGUCUUAACA [hsa-miR-499b-3p] | -7.16 | 77 | -24.7
GUUCAAAUCCAGAUCUAUAAC [hsa-miR-607] | 34.2 | 111 | -23.2
GUGUCUGCUUCCUGUGGGA [hsa-miR-632] | -24.2 | 37 | 31.3
UCAGGUGUGGAAACUGAGGCAG [hsa-miR-3934-5p] | -10.9 | 42.8 | 10.5
AGUUAAUGAAUCCUGGAAAGU [hsa-miR-569] | -15.9 | 90.6 | 10.3
ACAAAGUGCUUCCCUUUAGAGUGU [hsa-miR-520g] | 24.4 | 77.4 | -7.99
CCAGACUGUGGCUGACCAGAGG [hsa-miR-4494] | 52.3 | 96.4 | -29.5
UCGUGUCCCUCUUGUCCACAG [hsa-miR-6774-3p] | 58.8 | 70 | -27
CUCGGCCGCGGCGCGUAGCCCCCGCC [hsa-miR-4665-3p] | 22 | 75.2 | -15.1
CUGUUGCCACUAACCUCAACCU [hsa-miR-744-3p] | -44.1 | 56 | 27.3
AUCAUACAAGGACAAUUUCUUU [hsa-miR-539-3p] | -9.08 | 39.4 | -9.28
UGGACUGCCCUGAUCUGGAGA [hsa-miR-1288] | 2.11 | 33 | 7.88
CGGCGCGACCGGCCCGGGG [hsa-miR-4634] | 24.7 | 71.2 | -14.3
UGACCGAUUUCUCCUGGUGUUC [hsa-miR-29c-5p] | -8.5 | 105 | 21.1
GCGACUCUGAAAACUAGAAGGU [hsa-miR-4431] | 34.2 | 82.9 | -23.7
UGGCAGUUACUUUUGCACCAG [hsa-miR-548au-3p] | -17.4 | 5.53 | 31.4
UCUGCUCAUACCCCAUGGUUUCU [hsa-miR-767-3p] | 54.2 | 129 | -21.6
UGGCAAACGUGGAAGCCGAGA [hsa-miR-4470] | -21.5 | 15.8 | 61
ACGGGUUAGGCUCUUGGGAGCU [hsa-miR-125b-1-3p] | 15.9 | 53.9 | 13.6

Sequence | 5+ nucleoli phenotype percent effect (MCF10A [1]) [%] | percent viability (MCF10A [2]) [%] | one-nucleolus phenotype percent effect (MCF10A [3]) [%]
GAUCUCACUUUGUUGCCCAGG [hsa-miR-1285-5p] | 15.8 | 43.4 | -20.8
UAAAGACUGUAGAGGCAACUGGU [hsa-miR-7161-5p] | 33.8 | 79.8 | -23.4
AGCUGUCUGUGUUUUCCUUCUCAG [hsa-miR-6876-3p] | -19.1 | 58.5 | 6.32
UCUGGCCUUGACUUGACUCUUU [hsa-miR-3922-3p] | 6.7 | 35.7 | -2.7
CUGUAAUAUAAAUUUAAUUUAUU [hsa-miR-2054] | 28 | 168 | -17.6
UAAAGUGCUUAUAGUGCAGGUAG [hsa-miR-20a-5p] | 6.94 | 81.6 | -13.2
UCUUCUCUGUUUUGGCCAUGUG [hsa-miR-942] | 12.1 | 73.4 | -0.685
UUAGUGCAUAGUCUUUGGUCU [hsa-miR-4671-3p] | 47.6 | 85.2 | -12
UGAGGCUAAUGCACUACUUCAC [hsa-miR-3975] | -22.7 | 15.5 | 38.9
UUCUUUGUUUUUAAUUCACAG [hsa-miR-6844] | 8.6 | 70 | -15.7
CAAAGUGCUUACAGUGCAGGUAG [hsa-miR-17-5p] | 27.3 | 71.5 | -20.9
GACUGGACAAGCUGAGGAA [hsa-miR-3654] | 68.1 | 99.2 | -25.9
CAACCCUAGGAGAGGGUGCCAUUCA [hsa-miR-652-5p] | -17.7 | 46.2 | 12.5
UGCUGUAUUGUCAGGUAGUGA [hsa-miR-4999-5p] | -10.3 | 48.1 | -7.82
CCUGUGCUCCCAGGGCCUCGC [hsa-miR-5008-3p] | 24 | 77.3 | -14.5
UGAGGUAGUAAGUUGUAUUGUU [hsa-miR-98-5p] | 44.8 | 30 | -13
GGGCUAGGGCCUGCUGCCCCC [hsa-miR-6069] | 21.6 | 54.3 | -4.55
AGAGUUGAGUCUGGACGUCCCG [hsa-miR-219-1-3p] | 30.8 | 88.9 | -25
GCCUCUCUCGGAGUCGCUCGGA [hsa-miR-3183] | 40 | 77.6 | -23.3
UCAGUGCACUACAGAACUUUGU [hsa-miR-148a-3p] | 68.2 | 88.9 | -16.7

Sequence | 5+ nucleoli phenotype percent effect (MCF10A [1]) [%] | percent viability (MCF10A [2]) [%] | one-nucleolus phenotype percent effect (MCF10A [3]) [%]
GAAGAAUAGGAGGGACUUUGU [hsa-miR-6507-5p] | 35.1 | 79.1 | -12.9
AAUGUUUUUUCCUGUUUCC [hsa-miR-4307] | 3.12 | 63.9 | -12.3
AUCAUAGAGGAAAAUCCAUGUU [hsa-miR-376b-3p] | 52.2 | 144 | -20.4
AUUCUAAGUGCCUUGGCC [hsa-miR-4263] | -1.39 | 37.3 | -0.791
UUCUGGAUAACAUGCUGAAGCU [hsa-miR-5706] | 51.3 | 176 | -32.6
UCCCAAGGGUGAGAUGCUGCCA [hsa-miR-6814-5p] | -13.3 | 48.6 | 7.66
AAGCUGCCAGUUGAAGAACUGU [hsa-miR-22-3p] | 8.61 | 35.3 | -3.65
CGCAGACAAUGCCUACUGGCCUA [hsa-miR-3166] | -21.5 | 21.3 | 6.38
CAAAACGUGAGGCGCUGCUAU [hsa-miR-424-3p] | -16.6 | 74.1 | -5.82
CAGGAAGGAUUUAGGGACAGGC [hsa-miR-4476] | -8.98 | 23.3 | 14
UUCACAGUGGCUAAGUUCCGC [hsa-miR-27a-3p] | -6.22 | 118 | -7.64
ACACACUUACCCGUAGAGAUUCUA [hsa-miR-216b-3p] | 35.7 | 59 | -17.3
UUGCUCUGAGCUCCGAGAAAGC [hsa-miR-5691] | -16.4 | 48.2 | -10.3
ACUGUUGCUAAUAUGCAACUCU [hsa-miR-367-5p] | 4.48 | 102 | -5.32
UGGCGGCGGUAGUUAUGGGCUU [hsa-miR-4467] | -36 | 30.8 | 39.9
ACGUUGGCUCUGGUGGUG [hsa-miR-1306-3p] | -4.59 | 18.4 | 38.2
ACUGAUUUCUUUUGGUGUUCAG [hsa-miR-29a-5p] | 23.5 | 134 | -23.9
UAUGUGCCUUUGGACUACAUCG [hsa-miR-455-5p] | -19.3 | 44.7 | -2.17
UUGCACUCUGGCCUUCUCCCAGG [hsa-miR-7703] | -11.1 | 25 | 23
